Measured values: patent publication US11780907B2, “Human antibodies to influenza hemagglutinin” (Regeneron Pharmaceuticals, Inc., priority 2018, dated 2023)
Entries after “also recorded” stand apart in the source; their conditions may differ. Where two headings read alike, the source gives them in different places.

Legend:
[1] = tested on: A/Aichi/02/1968-X31 (H3N2); parameters: species or system BALB/c mice; details: mouse, in vivo
[2] = tested on: A/Victoria/316/2011 (H3N2); format: cell-based, influenza A virus
[3] = tested on: A/Aichi/02/1968-X31 (H3N2); parameters: species or system BALB/c mice; details: mouse, in vivo, iv, 15 mg/kg
group 1 strains (HA) = format: binding, influenza A virus
[4] = biological target: A/Hiroshima/52/2005 (H3) HA foldon protein; format: binding, influenza A virus
[5] = tested on: A/Aichi/02/1968-PR8-X31(H3N2)-infected MDCKs; format: cell-based, canine
[6] = biological target: A/Shanghai/01/2013 (H7) HA foldon protein; format: binding, influenza A virus; details: 37° C.
[7] = tested on: A/Shanghai/01/2013-PR8 (H7N9); format: cell-based, influenza A virus; details: read-out: Neutralization activity IC50
[8] = tested on: A/Aichi/02/1968-PR8-X31 (H3N2); format: cell-based, influenza A virus; details: read-out: Neutralization activity IC50
[9] = tested on: A/Philippines/01/1982 (H3N2); format: cell-based, influenza A virus; details: read-out: Neutralization activity IC50

Molecule: CCOC(=O)C1=C[C@@H](OC(CC)CC)[C@H](NC(C)=O)[C@@H](N)C1 [oseltamivir, reference compound]
- survival [1]: 80%

B1: H1H14611N2: fully human anti-influenza A group 2 HA monoclonal antibody, HCVR/LCVR SEQ ID NOs: 2/10 (antibody, V domains shown)
VH: EVQLVESGGGLVKPGGSLRLSCAASGFTFSGFSMNWVRQVPGKGLEWVSSISTSGNYMYYADSVKGRFTISRDNAKKSFSLQMNSLRAEDSAIYYCARGGGYNWNLFDYWGQGSLVTVSS
VL: EIVLTQSPGTLSLSPGERATLSCRASQSLNSNYLAWYQQKPGQAPRLLIYGASSRATGIPDRFSGSGSGTDFTLTITRLESEDFAVYYCQQYGNSPLTFGGGTKVEIK
- lowest concentration of mAb where no RBC hemagglutination was detected [2]: 41.7 nM
- survival [3]: One hundred percent survival; also recorded: survived; also recorded: complete protection
- binding to group 1 strains (group 1 strains (HA)): did not bind
- effect when dosed in combination with oseltamivir [1]: additive protective effect; also recorded: additive efficacy
- survival ([1]; 7 mg/kg): 80%
- survival ([1]; 15 mg/kg): 100%
- Kd [4]: 8.22 nM
- maximum lysis (percent specific lysis) [5]: 78.3%
- KD [6]: IC^§

B2: H1H14612N2: fully human anti-influenza A group 2 HA monoclonal antibody, HCVR/LCVR SEQ ID NOs: 18/26 (antibody, V domains shown)
VH: EVQLVESGGGLVKPGGSLRLSCAASGFSFSGFSMNWVRQAPGKGLEWVSSISTSGNYMYYADSVKGRFTISRDNAKKSFSLQMNSLRAEDSAIYYCARGGGYNWNLFDYWGQGSLVTVSS
VL: EIVLTQSPGTLSLSPGERATLSCRASQSLNSNYLAWYQQKPGQAPRLLIYGASSRATGIPDRFSGSGSGADFTLTISRLESEDFAVYYCQQYGNSPLTFGGGTKVEIK
- lowest concentration of mAb where no RBC hemagglutination was detected [2]: 166.7 nM
- IC50 [7]: > 6670 nM
- IC50 [8]: 5.7 nM
- survival [3]: One hundred percent survival; also recorded: survived; also recorded: complete protection
- IC50 [9]: 37.6 nM
- maximum lysis (percent specific lysis) [5]: 86.3%
- EC50 ([5]; read-out: CDC EC50): 126 nM
